In publication PMC5415421:

Molecular target: WDR74 isoform II, C-terminal GFP (human)
Assay: co-IP

- relative amount of NVL2 bound to the resin: 9.2%
B1: Full-length mouse NVL2 (1–855), N-terminal One-Strep-Flag tag (enzyme)
chain: MKPRPGVFVDRKLKQRVIQYLSSNRCGKYVDTGILASDLQRLYSVDYGRRKRNAFRIQVEKVFSIISSEKELKNLKELEDGHLAKRARQDEEDEYTESYSDDDSNMEDYPDPQSANPMNSSLLSLYRRGNSESVSTTPKWGQREATTSTPLLTSKTGSVPLKTPARESEGGWFIDKTPGGKKESLPLDLSDDQSNSKKQDSEIQILKDSSLLESDKKRKGRAKGKGNKRKTENLQEVDGEIEALLQKKAKARSTELQISNVKFEDVGGNDATLKEVCKMLIHMRHPEVYQHLGVVPPRGVLLHGPPGCGKTLLAHAIAGELDLPILKVAAPEIVSGVSGESEQKLRELFDQAVSNAPCIVFIDEIDAITPKREVASKDMERRIVAQLLTCMDDLNNVAATARVLVIGATNRPDSLDPALRRAGRFDREVCLGIPDEAARERILQTLCRKLRLPETFNFCHLAHLTPGFVGADLMALCREAAMCAVNRVLMKQQAQQKKKPEIEGLPSEGDQEERLGAEPTSETQDELQRLLGLLRDQDPLSEEQMQGLCIELNDFIVALAEVQPSAKREGFVTVPNVTWADIGALEDIRDELIMAILAPVRNPDQFRTLGLGTPAGILLAGPPGCGKTLLAKAVANESGLNFISVKGPELLNMYVGESERAVRQVFQRAKNSAPCVIFFDEVDALCPRRSDRETGASVRVVNQLLTEMDGLETRQQVFILAATNRPDIIDPAILRPGRLDKTLFVGLPPPADRVAILKTITKNGTKPPLDEDVNLETIANDLRCNCYTGADLTALVREASLCALRQEITAQKNGVGAGELKVSHKHFEDAFKKVKPSISIKDQVMYEALQRSLSQ
